# The DeepSol protein solubility set
# Assay: soluble on expression in E. coli; label from the status in PepcDB or PDB records
row,Sequence,soluble on expression in E. coli
1,MPKASLIIRERGLPKREVLLSPDRQWTIGRQLDCSIRLTDAYVSRLHAVINAFLFRGQPLYFIRDAHSRNGTFLNGFPLQHSTLLHHEDVIGVGTTLLVFYYPDMFREISLDECPLEHHHHHH,soluble
2,MPKDKKKDEVTEVEHVDRNISSFSQISHLIDAEIITRLTLSHNKLTSVPPNIADLVSLQSLNLWNNQIEDLPPSISSLPKLRILNVGMNKLSILPRGFGSFPELEILDLTYNNLSERSLPGNFFFMQTLRALYLGDNDFEMLPGDVENLTNLQILVLRENDLLTLPKELGKLTRLRELHIQGNRLAMIPPELGNLELVGSKQVLRLEHNPFIPRIEEQFEANGAAGVWAHIRTDDYRYFFGRQEPSSTPVPPKRNKEKKVSRKGIQQA,not soluble
3,MPKGSGKVIAQNKKAFHDYFIEETYEAGLVLQGTEIKSIRAGRVNLKDAFARVHNGEVWVHNMHISTYEQGNRFNHDPLRTRKLLLHKKEIEKLAGASKETGYALVPVRIYLKNGFAKMALGLAKGKKQYDKRHDLKEKEAKREIARAFRDRQKM,not soluble
4,MPKKEKMAKTPLSDEKQLLLFQQKLLAEEEMAKKKERLLSQFLKDKLAKEEHNSALNLNKINTQWRTVLREVKTRELHKDIEILSQTFERVVDCKDNVIKSLAKDLSEAEEQYAHALRSHLHNVDQLLALQRHRLSLLEESYNMELEALTKEFETERKTIIDQHEKEIHYLQDIFMAMEQNYIDSEYESKLEFQSMWNDLKNMNLEEKHFLRLHLENRVEDLWRKFQDVLKNYTDATEDRKAAFETLQVKDEKSSKEIEVQMKKIQKLQDAITISKGKIMIHSRESEDENRYIRNDKELVLVQLRKLKAQRTQARAASQKNLVRLTLESNATLKALRKIVDKGEKILKLAEICRKFETEEEKVLPFYSSVLTPKEQEGIQKNNLEELTEELTKVMVDYIGMENFWKRYNKVKLEQLSLQHRRAQLLDINGKLREMLKQYLDGISVSDEVLSQLNPLFIVNYQSNLLQPLSIRIAHPGDKQHPTT,soluble
5,MPKNKGKGGKNRRRGKNDSEGDKRELVFKEEGQEYGQVQRMLGNGRLDAYCFDGQKRLCHIRGKMRKKVWVNPGDIVLVSLRDFQDSKGDIILKYTPDEARALKSKGEIPETTKINE,soluble
6,MPLEAGLLEILACPACHAPLEERDAELICTGQDCGLAYPVRDGIPVLLVDEARRPEAAALEHHHHHH,not soluble
7,MPLEASELKPTAGPLEASELKPTAGPLEASELKPTAGPLEASELKPTAGPLEASELKPTAGPLEASELKPTAGPLEASELKPTAGMPSVQQDITHPKELLISTNWLNRKDVPFMNNQEQQIQNVLNTLRDPDTIRTRSHRILNLAKQNRLEHFSLNPERMTTTASYIVDIITSRYPELDIPYHSRWRHFEMDGLPRIHNLRKQLDPISPSEWGKILYELVIISVFLDAGAGPLWRYKEALTEKEYSRSEGLALASLYLYESGAFSADPTNPFRVDAERLLDFKETDLIKGFQVSSTNLLEGIPGRVSLLNRLGEIIHRKEHCFNRRKRLGEFYTYVESLQDNKILPTTKLFEAVLETFNDIWPVRLIYHGVSLGDVWIHSALKTNEAGSEYIPFHKLSQWLTYSLVEPLEQTGIDIADLDVLTGLPEYRNGGLLIDTELLKVRNNKILEQPQDPGSEPIVEWRALTVALLDELALLIRQQLNMNAESLPLAKILQGGTWEAGRQIAQKKRINGTPPIEIISDGTIFLEHHHHHH,not soluble
8,MPLKLTTYYQGSEIPDFPGTNTFHSKELFQIYEETPGYTPLLIMASEDGKPVARLLAAIRKSIRMFPPAFIKRCEIYGTGEYLTAEADKERIFGEMLEHLTTEALRNSFLIEFRNLENAMFGYKYFRSNRYFPVNWLRVRNSLHGIENAEQRFSPSRIRQIKKGLKNGAKVDEARTVEEIREFSNMLRHLYSSRIRKHFPNIIFFQHMDTRLIHSRQAKIFIVRYKDKIIGGSACIYSGNDAYLWFSGGMRKTYALQYPGILAVWKALQDAHQNGFRHMEFMDAGLPFKKHGYRDFVLRFGGKQSSTRRWFRFRWQWLNDLLIKIYV,not soluble
9,MPLMPQPTLMPLLQSPSPQHQHQQQQQHRAIGYPQRTLLPQQKQPQQQQPLAYLTSNFNPQQSSVASFNSSPAFTTISDFDQDFDQDYSNCPSLTASPVSTYSLPAYSSTSQQGSSLSAFDSIPNTTTVPRAAQGAAEPLFNLWADPMQTETWLQPADQLTSKSAGRYGHHRESSLSSLGSAGPASPYSNNTSNPQIAVTDFNDFSGFEDLNYHLVPSKASATLHPSFPGYANSNAVPINGYSRAPAVSKQNNNKSFRQEQSVGSNKPRPAPVASSIMSDSSATPAGEAEVAGRQKNGESQENRDLPDRDQSLPFDDVAINNNAPPKFDRTLTDIMNDELYHPDLVITTSAPAPQQTLTTSNNNFNKVVETANQHLSAMQSPASSNSSPFRQGSPHSATLHDFSSLNMASPQVRLGSAQQMRENSKAVQDAAWQQSLARHNQDMTPKTISPKDALLDYHEPEGESNFPLFPQPDNHGFNSDAMSKALSHQSLDGLPNLGDMSTFNFNFSPSNLDSMPTFNGLQQLPQTLQQYSFVNQPRQPSTVPSLATSRMSSAETGITDSPRSNAVQRPVDTRAEGGTYTCTYHGCPLRFDTPQLLQKHKREGHRQAHGLNSRQPNGMTSTRVDTQAGPHRCERINPSTGKPCNQIFSRPYDLTRHEDTIHNARKKKVRCEICTDEKTFSRADALTRHFRVCHPDVPFNGGKQRKARAGRSG,not soluble
10,MPLSSPDRLAIAVDLGTTTLAASLLDMATGERLAVAGSLNPQREFGADVIARLDAACRSKEARHRMAELVRGAIGRLAGELLESVGRSPEHLVTIAVAGNPAMEHLLLDLPVDALAFPPYRPLFTAGKTVPAVGLGWDLPAEVFLFPLPGGFVGGDTVAFLHGVPGPRSPVPGPRLYLDMGTNGEIALAADGKLLATSAAAGPAFEGGNLSCGMAALPGAISGVTFDGERLLVSTVEGKPATGICGSGVLSAIALLLDQGAIDSTGRLLPPEEIPSSIGNRLTTMGDERAFVLHRDATRTVWLSQEDIRQVQLAKGAIRAGMEVLFDRAGIESGAVGSVVLTGSFGAVLDPHSLKSLGVFTENMVQTTSFVREGALRGVEHALLTSGGLAAVDHLAGTIRVIPLSGTPAFEKHFLQHINFPHTILEHHHHHH,soluble
11,MPLVLDLARPVSEEELRRLSELNPGYQWERSPEGRLWVSPTGGESGRRSLQLAYQLARWNEERGLGVVFDSSTGFKFPDGSILSPDAAFVERGAWEALSEAEREGFPPLAPKAVFEVRSASQDPEELRAKMGIYLRNGVLLGVLVDPYARAVEVFRPGKPPLRLEGVERVSLDPELPGFALSLPPLW,soluble
12,MPLVSLIIRCYNEEKHIGRLLSGVMQQQGIDYEIIIVDSGSTDATVSIAQRYPIQLISIDPQNFSFGRSLNLGCQQASGEYLVFASAHVYPVYQDWLKQLIAPLQTNPQIALSYGKQRGNNQTQFSEHQIFAQWFPDQAQIPQTTPFCNNANAAIRRDLWQKYPYNEDLTGLEDLDWAKRLMQAGYQIAYVPDAEIIHVHQETPQRVRNRYRREAIALKQIFPEQTFSLGDFVRLTVSNTLSDYYYAWQSQQLMTQLWAIPQFRLMQFWGTYQGYHQNNSLNQQLRQTFYYPRPINTITPNVPSKDALKINYAQSDTQLVPDPSPPSPHQLEHHHHHH,soluble
13,MPMNRLISHIERSISIHKCVVVPSLGGFVAELLPACYDRDDNLIYPPKEELRFNAALSLRDGILEDSYARAYGISHRRARVMLDDDVRTLRAELVRAGRVSLEKMGELTLNPEGQISYSHRSEAEEGSGFSYGLAPCSLPRLAESFDEARPFAEREKEALSVGRSDYFYLKIHKRTGMMAAAAVMSAVLLVVPWGQISSSDKFAASFVPTELTAKSVWKDTEARPVQVVTAKPASVATTADSQPIEATASKPAESPNQLSTDVAEGGVPVMHEPVGSKCYYVVVGTFDTKKKAQEFYRMSIDKAIMPNAVVLLSSNKARIYSDRFATADEAQTYIRSMKDKHRLFADAWVYAGR,not soluble
14,MPNLLDDSFDPTFQSTSKKLVLPSIRKVQPEYDNLPEEQGVNDFSSDELMKLLSFMEGEVQAREDVIDHLKRERTKILLSEAKYGKLNMNDPFAALRRDSAITGEQIDEEKIVQMYESQVDQLDKMMAVQKQSQRNAAVLLVALEKKQYKLVKKLEADREAKIRYAKQGDDLVAHLEKERNQLQQQIEFHIEEKRKAEIAKDKMEMTLGNEKKRHESIVLYLIQERKQMLLKMHELRVKAEQIMLQNQNDPTKPGPSSALSERELIEELKKEVTFLRAERESLTKTQKMVKTENLSLRETVRGQEADLQMLRRNLTLTGAKMSIDKPGNVLPQLPPDTGSLIMANRGAKPAVNRQQPAPPPVARLPNSATFPTEKSRLPRAPPPAVTTPVPRMSIGSLPASSSNVPRTMSSPVKKTPVMGVSSTAVRRPQSAATTTMPTTSVITNTSAVMPLSPDLEQLEAAIQSMNVVTASPPAYSTAMAKRSSSLPREANNNPPGAPIRRSTMNGGMHTSTTGVVSTRIAGPSSNVASERKLSGTVKRNGILAKAFGSSK,not soluble
15,MPNLSNRLTLLREKQGWSKAETARRLGLKAPSTYGNWEYGIREPDLDMVTQIATLYDVSVDYLLGQQSIPTYAPSELQGEKDIAKRMIKISEDLRYEDDLNLNGKPLNDSAAHFLADSIDFLYEQAKKLND,not soluble
16,MPNSSILLIFLLTIVILIAPEENHKTYCEVLTSNNSNCTAYCKEKPECSWGRCEGYFKTNCVCYSDKYQFCE,not soluble
17,MPNVKDITRESWILSTFPEWGTWLNEEIEEEVVAEGNFAMWWLGNCGVWIKTPGGANVVMDLWSNRGKSTKKVKDMVRGHQMANMAGVRKLQPNLRAQPMVIDPFAINELDYYLVSHFHSDHIDINTAAAIINNPNLDHVKFVGPYECGEIWKKWGVPEERIIVIKPGESFEFKDIKVTAVESFDRTCLVTLPVDGAEEHDGELAGLAVTDEEMARKAVNYIFETPGGTIYHGADSHFSNYFAKHGKDYKIDVAINNYGDNPVGIQDKMTSIDLLRMAENLRAKVIIPVHYDIWSNFMASTDEILQLWKMRKERLQYDFHPFIWEVGGKYTYPQDKDRIEYHHPRGFDDCFEQESNIQFKALLMAGDPLEHHHHHH,soluble
18,MPPITQQATVTAWLPQVDASQITGTISSLESFTNRFYTTTSGAQASDWIASEWQALSASLPNASVKQVSHSGYNQKSVVMTITGSEAPDEWIVIGGHLDSTIGSHTNEQSVAPGADDDASGIAAVTEVIRVLSENNFQPKRSIAFMAYAAEEVGLRGSQDLANQYKSEGKNVVSALQLDMTNYKGSAQDVVFITDYTDSNFTQYLTQLMDEYLPSLTYGFDTCGYACSDHASWHNAGYPAAMPFESKFNDYNPRIHTTQDTLANSDPTGSHAKKFTQLGLAYAIEMGSATGDTPTPGNQ,soluble
19,MPPKVTSELLRQLRQAMRNSEYVTEPIQAYIIPSGDAHQSEYIAPCDCRRAFVSGFDGSAGTAIITEEHAAMWTDGRYFLQAAKQMDSNWTLMKMGLKDTPTQEDWLVSVLPEGSRVGVDPLIIPTDYWKKMAKVLRSAGHHLIPVKENLVDKIWTDRPERPCKPLLTLGLDYTGISWKDKVADLRLKMAERNVMWFVVTALDEIAWLFNLRGSDVEHNPVFFSYAIIGLETIMLFIDGDRIDAPSVKEHLLLDLGLEAEYRIQVHPYKSILSELKALCADLSPREKVWVSDKASYAVSETIPKDHRCCMPYTPICIAKAVKNSAESEGMRRAHIKDAVALCELFNWLEKEVPKGGVTEISAADKAEEFRRQQADFVDLSFPTISSTGPTGAIIHYAPVPETNRTLSLDEVYLIDSGAQYKDGTTDVTRTMHFETPTAYEKECFTYVLKGHIAVSAAVFPTGTKGHLLDSFARSALWDSGLDYLHGTGHGVGSFLNVHEGPCGISYKTFSDEPLEAGMIVTDEPGYYEDGAFGIRIENVVLVVPVKTKYNFNNRGSLTLEPLTLVPIQTKMIDVDSLTDKECDWLNNYHLTCRDVIGKELQKQGRQEALEWLIRETQPISKQH,soluble
20,MPPPIAFNASARKSQSVNQSDVMMMSDPSHVDIIKSNSHTTRIAVNLVSEPESRLKLHGEDARMSWTVLLLVFRATTIATRNNVPELDRELAR,not soluble
